For assay [1], the target named is T1, full-length human Nav1.7 fused at its N-terminus to GFP, expressed in HEK293 cells (human, UniProt Q15858 1-1988).
T1 construct: Voltage-gated sodium channel alpha subunit; In the Western blot it stood as denatured cell lysate; also called hNav 1.7-GFP-HEK293; Nav 1.7-GFP-HEK293; not shown: green fluorescent protein (GFP) at the N-terminus
As to the kind of experiment: flow cytometry on Nav1.7-GFP-HEK293, antibody 3.3 nM. The protocol:
The specificity of binding of anti-Naᵥ 1.7 human antibodies to full-length Naᵥ 1.7 expressed in HEK293 cells was determined by peptide competition experiments using flow cytometry.
HEK293 cells stably-transfected with full-length Naᵥ 1.7 fused at its N-terminus to GFP (Naᵥ 1.7-GFP-HEK293) were used for this study. Antibody binding to the transfected cells overexpressing Naᵥ 1.7 was compared to binding in the presence of excess peptide and to binding to the parental HEK293 cell line. To perform the binding experiments, adherent cells were collected using 1 mM EDTA in PBS, washed and re-suspended in cold PBS containing 5% FBS. For each binding experiment the anti-Naᵥ 1.7 antibody at a final concentration of 3.3 nM (in PBS/5% FBS) was added to cells either directly or after incubating for 10 min on ice with a 1000-fold molar excess (3.3 uM final concentration in PBS/5% FBS) of synthetic peptide with sequence corresponding to the loop specificity of the antibody. The antibodies designated as H4H391P, H4H443B, H4H448B, and H1M797N were preincubated as described above with a synthetic peptide corresponding to EC loop 3-1 (amino acid residues 269-338 of SEQ ID NO: 670), whereas the antibodies designated as H4H468P and H1 M852N were preincubated with a synthetic peptide corresponding to EC loop 3-3 (amino acid residues 1333-1382 of SEQ ID NO: 670). The antibody or antibody-peptide mixture was then allowed to incubate with cells for 20 min on ice, followed by addition of 500 uL of cold PBS/5% FBS. Cells were collected by centrifugation, resuspended in 500 uL of cold PBS/5% FBS, and then secondary antibody matched to the antibody isotype (either anti-human-Fc conjugated to Cyanine 5 or anti-mouse-Fc conjugated to allophyococyanin) was added. Binding was detected on the flow cytometry instrument and analyzed as percent binding using the instrument software. For FACS analysis appropriate gating was applied so that only healthy, live cells were counted. Background staining of secondary antibodies alone to Naᵥ 1.7-GFP-HEK293 cells was tested and recorded for all samples, and results ranged between 1-2% binding.

Assay [2] deals with T2, C-Term Biotin Nav1.7 (3-3) peptide, mouse (mouse, C-terminal biotin attached via a G4S linker).
T2 construct: Synthetic peptide; also called Mouse Nav1.7 3-3 C-term biotin
T2 peptide: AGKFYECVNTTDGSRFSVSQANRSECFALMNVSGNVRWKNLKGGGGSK
Kind of assay: SPR, captured antibody, peptide analyte. In outline:
(§1)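 Peptide analytes flowed at multiple concentrations over anti-Nav1.7 antibodies held by an anti-Fc capture surface. After reference-surface and buffer-blank subtraction, a global 1:1 Langmuir fit gave ka and kd, with KD as kd/ka and dissociative half-life as ln2/kd.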
(In SPR one partner is held on a chip, and binding of the other changes the refractive index at the surface.)

The target in assay [3] is T3, Native Nav1.7 (3-3) peptide, human (human).
T3 construct: Synthetic peptide, unbiotinylated; also called Human Nav1.7 3-3 native; Nav1.7 3-3 native peptide
T3 peptide: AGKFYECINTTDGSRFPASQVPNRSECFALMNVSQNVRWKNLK
Kind of assay: SPR, captured antibody, peptide analyte. In outline:
as §1

For assay [4], the target named is T4, C-Term Biotin Nav1.7 (3-3) peptide, rat (rat, C-terminal biotin attached via a G4S linker).
T4 construct: Synthetic peptide; also called Rat Nav1.7 3-3 C-term biotin
T4 peptide: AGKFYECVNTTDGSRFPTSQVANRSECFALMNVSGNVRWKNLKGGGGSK
As to the kind of experiment: SPR, captured antibody, peptide analyte. In outline: as §1

Assay [5] concerns the target T1, full-length human Nav1.7 fused at its …. As to the kind of experiment: flow cytometry; % stained hNav1.7-GFP-HEK293 minus parental HEK293. The procedure, abridged:
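Percent-stained values come from FACS of healthy live cells, taking transfected-cell staining minus parental HEK293 staining. Cells were exposed on ice for 20 min to 1-13 nM antibody, then 20 min to 1.7 nM fluorescent anti-human or anti-mouse Fc secondary.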
A general note: In flow cytometry, cells or beads pass a laser one at a time.

Assay [6] has as its target T5, C-term Biotin Nav1.7 (3-1) peptide, human (human, not fully specified; C-terminal biotin attached via a G4S linker).
T5 construct: Synthetic peptide; also called Human Nav1.7 3-1 C-term biotin
T5 peptide: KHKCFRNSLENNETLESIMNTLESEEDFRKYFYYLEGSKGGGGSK
As to the kind of experiment: SPR, captured biotin-peptide, antibody analyte.

In assay [7] the target is T6, C-term Biotin Nav1.7 (3-3) peptide, human (human, C-terminal biotin attached via a G4S linker).
T6 construct: Synthetic peptide; also called Human Nav1.7 3-3 C-term biotin
T6 peptide: T4 peptide with V8I, T18A, A22P, G35Q
Kind of assay: SPR, captured biotin-peptide, antibody analyte.

The target of assay [8] is T7, N-Term Biotin Nav1.7 (Paddle) peptide, mulatta (mulatta (monkey), not fully specified).
T7 construct: ELISA peptide
T7 peptide: Biotin-GGGGSTEFVDLGNVSALRT
Kind of assay: ELISA on coated peptide, antibody 1 ug/ml, OD450 grade. The procedure, abridged: (§2)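 Binding graded from absorbance at OD450 for antibodies applied at 1 μg/ml (− below 0.2, + 0.2–1, ++ 1–2, +++ 2–4; NT not tested); antibodies were also run at 0.1 μg/mL. Biotin-peptides at 0.4 μg/mL on avidin-coated plates, other peptides at 4 μg/mL; 1 h RT binding; HRP anti-IgG/TMB detection.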

The target of assay [9] is T8, N-term Biotin Nav1.7 (Paddle) peptide, human (human, not fully specified).
T8 construct: ELISA peptide
T8 peptide: Biotin-GGGGSTEFVNLGNVSALRT
The assay is described as above. In outline: as §2

The target in assay [10] is T9, Native Nav1.7 (Paddle) peptide, human (human).
T9 construct: Synthetic peptide, unbiotinylated; also called Human Nav1.7 paddle native
T9 peptide: TEFVNLGNVSALRT
As to the kind of experiment: SPR, captured antibody, peptide analyte. The procedure, abridged:
as §1

Assay [11] addresses T10, N-Term Biotin Nav1.7 (3-1) peptide, mouse (mouse, not fully specified; N-terminal biotin attached via a G4S linker).
T10 construct: Synthetic peptide; also called Mouse Nav1.7 3-1 N-term biotin
T10 peptide: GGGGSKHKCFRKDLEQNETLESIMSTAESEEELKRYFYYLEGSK
As to the kind of experiment: ELISA on coated peptide. The protocol:
(§3) Anti-Naᵥ 1.7 antibodies were tested for their ability to bind to the Naᵥ 1.7 peptides. The various peptides were coated overnight onto 96-well Nunc Immunosorp plates at a concentration of 4 μg/mL in PBS, followed by blocking for 1 hour in a suitable blocking agent. For biotinylated peptides, avidin was first coated on Nunc Immunosorp plates at 2 μg/mL in PBS overnight, followed by blocking as described, and the plate was then coated with biotinylated peptides at a concentration of 0.4 μg/mL and incubated for 1 hour at room temperature. Purified anti-Naᵥ 1.7 antibodies were diluted to a final concentration of 0.1 μg/mL and 1.0 μg/mL and added to the wells of the coated microtiter plates followed by incubation for 1 hour at room temperature. Bound antibodies were detected with horseradish peroxidase (HRP) conjugated anti-mouse or anti-human IgG (Jackson Immuno Research Lab, West Grove, Pa.) depending on the antibody species and developed by colorimetric response using tetramethylbenzidine (TMB) substrate (BD Biosciences). Absorbance was read at OD₄₅₀ on a plate reader for 0.1 second.
(§4) Values in Table 11 represent absolute binding ranges (at OD450) to plate-coated peptides for antibodies added at 1 μg/ml as follows: OD450<0.2: −; 0.2<OD450<1: +; 1<OD450<2: ++; 2<OD450<4: +++; NT: Not Tested.
(In general: An ELISA detects its analyte on a solid surface through an enzyme-linked reagent.)

Assay [12] has as its target T11, Native Nav1.7 (3-1) peptide, rat (rat).
T11 construct: Synthetic peptide; also called Rat Nav1.7 3-1 native
T11 peptide: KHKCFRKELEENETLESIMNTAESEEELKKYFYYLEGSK
As to the kind of experiment: ELISA on coated peptide. The protocol:
as §3, §4

Assay [13] concerns the target T1, full-length human Nav1.7 fused at its …. As to the kind of experiment: cell-based or functional assay.
The target of assay [14] is T12, N-Term Biotin-Nav1.7 (3-1) peptide, human (human, not fully specified; N-terminal biotin attached via a G4S linker).
T12 construct: ELISA peptide
T12 peptide: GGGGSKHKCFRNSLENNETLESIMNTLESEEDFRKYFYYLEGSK
Kind of assay: ELISA on coated peptide, antibody 1 ug/ml, OD450 grade. The procedure, abridged:
as §2

Assay [15] concerns the target T13, N-Term Biotin Nav1.7 (3-1) peptide, mulatta (mulatta (monkey), not fully specified; N-terminal biotin attached via a G4S linker).
T13 construct: Synthetic peptide; also called Mulatta Nav1.7 3-1 N-term biotin; monkey
T13 peptide: T12 peptide with F10V, R11Q, E15V
Described as above. The procedure, abridged:
as §2

The target in assay [16] is T10, N-Term Biotin Nav1.7 (3-1) peptide, …. Kind of assay: SPR, captured antibody, peptide analyte. The procedure, abridged: as §1
Assay [17] addresses T11, Native Nav1.7 (3-1) peptide, rat. As to the kind of experiment: SPR, captured antibody, peptide analyte. In outline: as §1
In assay [18] the target is T14, Native Nav1.7 (3-1) peptide, human (human).
T14 construct: Synthetic peptide (Celtek), unbiotinylated; also called Human Nav1.7 3-1 native; Nav1.7 3-1 native peptide
T14 peptide: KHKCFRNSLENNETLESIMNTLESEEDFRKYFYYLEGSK
Kind of assay: SPR, captured antibody, peptide analyte. The procedure, abridged: as §1

Assay [19] deals with T13, N-Term Biotin Nav1.7 (3-1) peptide, …. As to the kind of experiment: SPR, captured antibody, peptide analyte. The procedure, abridged: as §1

Numbering of substitutions follows the chain as printed. Ends that are not written are not given here. * marks the point of attachment. Biotin = O=C1N[C@H]2[C@H](CS[C@H]2CCCCC(=O)*)N1

We go through 4 molecules from patent US20160024208A1 (Regeneron, published 2016).

What is called Kd is a measure of binding affinity in units of concentration. Read a high Kd as a looser complex.

B1: H4H468P (antibody, V domains shown)
VH: QVQLVESGGGVVQPGRSLRLSCTASGFTFSVYGIHWVRQAPGKGLEWVAVIWYDGSNKYYTDSVKGRFTISRDNSKNTLYLQMNSLRAEDTALYYCAREGDLSSSSGSGGYHYVVDVWGQGTTVTVSS
VL: AIQMTQSPSSLSASVGDRVTITCRASQDIRNDLGWYQQKPGNAPKLLIYSTSSLQSGVPSRFSGSGSGTDFTLTISSLQPEDFATYYCLQDYNYPLTFGGGTKVEIK
notes: also called REGN1064
As for B1, the “% Binding Nav1.7 (Stable Line)” value in [1] turned out to be 89.5%. The binding result in assay [2], in assay [4] and in assay [6] was “no binding” each time. Besides, the values for the Kd in [3] and in [7] were 630 nM and 47.2 nM, respectively. For the same molecule, the figures for the t1/2 in [3] and in assay [7] were 0.31 min and 1.3 min, respectively. Besides, the “% Binding Nav1.7” value in assay [5] is 71.8%.

B2: H4H471P (antibody, V domains shown)
VH: QVQLVESGGGLVKPGGSLRLSCAASGVTFSDYYMTWIRQAPGKGLEWVSYISTDGRTIYYADSVKGRFTISRDNAKNSLYLQMNNLRAEDTAVYYCARGVDSDDYEDFYSYYDMDVWGQGTTVTVSS
VL: DIQMTQSPSSLSASVGDRVTITCRASQGISNYLAWFQQKPGKAPKSLIYAASSLQGGVPSRFSGSGSGTDFTLTISSLQPEDFATYYCQQYNSYPLTFGGGTKVEIK
Take B2: the Kd in [3] amounted to 16 nM; in [7], 0.138 nM. The t1/2 in assay [3] turned out to be 17 min; in [7], 743 min. Also, the binding result in assay [4] and in assay [6] was “no binding” each time.

B3: H1M683N (antibody, V domains shown)
VH: QVQLVESGGGVVQPGRSLSLSCAASGFTFSNYGMHWVRQAPGKGLEWVAAISYDGNTKYYVDSVKGRFTISRDNSKNTLYLQMNSLRGEDMAVYYCVGARPGYDHYGMDVWGQGTTVTVSS
VL: DIQLTQSPSFLSTSVGDRVTITCWASQGISSYLAWYQQKPGKAPNLLIYTASTLQSGVPSRFSGSGSGTEFTLTISSLQPEDFATYYCQQLNSYPYTFGQGTKLEIK
notes: Loop specificity 2-1 (paddle)
Turning to B3, the OD450 in assay [8] was in the range of 0.2 to 1 od. The OD450 in assay [9] lay in the range of 1 to 2 od. Also, in assay [10], the Kd was determined as 9.4 nM and the t1/2 was found to be 18 min. The binding result in [6] is “no binding”.

B4: H2M799N (antibody, V domains shown)
VH: EVQLVESGGGLVQPGGSLRLSCAASGFTFSIFWMNWVRQAPGKGLEWVAKIKQDGSEKYYVDSMKGRFTISRDNVKNSLYLQMNSLRAEDTAVYYCARGVWGSYRYTSSGLDVWGQGTTVTVSS
VL: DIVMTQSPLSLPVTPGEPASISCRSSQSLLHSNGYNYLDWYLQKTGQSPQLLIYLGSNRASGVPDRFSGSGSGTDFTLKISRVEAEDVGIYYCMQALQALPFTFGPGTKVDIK
notes: Hybridoma-derived
In the case of B4, the OD450 is under 0.2 od in [11], under 0.2 od in [12], 2 to 4 od in assay [14] and 2 to 4 od in assay [15]. The “Current blocking (Average % inhibition), IonWorks Quattro, 223 nM antibody” value in assay [13] is 6%. Also, the binding result in assay [16] and in assay [17] was “no binding” throughout. Further, the Kd in [18] was found to be 9.93 nM; in assay [19] it was 4.14 nM; in [6] it was 0.815 nM. The t1/2 in assay [18] worked out at 17.5 min; in assay [19], 27.4 min; in assay [6], 106 min. Moreover, the “% Binding Nav1.7” value in assay [5] came out at 5.7%.
